Test results published in the DeepSol protein solubility set.

assay: soluble on expression in E. coli; label from the status in PepcDB or PDB records

Sequence | soluble on expression in E. coli
MGSDKIHHHHHHMMNNIGLILFDIDGVIRDVTNSYRLAIQETVNFFSGWRPSIEDIDSIKSEGCWNNDWDLSLEMINRHVQKNNLSFSAPSRKILIECFENFYFGGDPNHDSSEWSGFIKDETLLVKKTFFEELTQRRIGWGFVSGAELPSAKFVLEQRLGLASAPLIAMGEAPEKPDPTGFISLSSKLSKKPLGFSNPPIAYIGDTVADVKTVINARIKIPDQKFISLAIAPPHLHVDSSREKRLRYEAELKKAGADLIIKSMDNLKNETLNLFINQ | not soluble
SSVWNLGRLNHVAIAVPDLEKAAAFYKNILGAQVSEAVPLPEHGVSVVFVNLGNTKMELLHPLGLDSPIAGFLQKNKAGGMHHICIEVDNINAAVMDLKKKKIRSLSEEVKIGAHGKPVIFLHPKDCGGVLVELEQA | soluble
MGSDKIHHHHHHMMSFREDKLLATNVPMRIVSLISKINEYKGKQVLYNQQAPEVLNTLKNVAIIQSTRASNSLEGITIKDTRLIDIMQNKVQPANRSEGEIAGYRDVLATIHSSYDAIPVKPSILLQFHRDLYRFISLEGGSWKNSDNAIEEVYPDGSKFVRFNPVSSFATPGAIEELCKFYNQYSNSGEIDSLMLISATILDFLCIHPFCDGNGRMARLLTLLLLYKEGYEVGRFISLEQIIEESKDAYYDTLYQSSQNWHEGKHDLLIWSEYLLGIILAAYKELMDRVGKVSRARGNKAMRVEETIDHFVSNFSINDIRRRCPDISPSTINRVLAKLRDANKIEVLGIGRGAKWKKNY | not soluble
MLGVFQKRCASTAPLIRPIQRVLVANRGEIAIRVQNTARKMGIETVAVFSDADRNSLFVKKADKAYHIGPPLAAESYLNMDKIINSALRSGAQAIHPGYGFLSENAGFAEKCAQAGLVFIGPPAQAIRDMGAKNVSKQIMEDAKVPVVKGFHGEDQSDANLKKKSAEIGYPVMLKAVYGGGGKGMRIAWNEAEFEEKLASARNEAKKSFGNDEMLVEKFVEKPRHVEVQVFGDHHGNYVHLWERDCSVQRRHQKIIEEAPAPNMEHDTRVKLGESAVRAAAAVGYVGAGTVEFIMDPRGEFYFMEMNTRLQVEHPVSEAITGTDLVEWQLRVAQGEKLPLKQSEIPLNGHAFECRVYAEDTRKGAFMPTAGRLNYVDFPEDARIDTGVVSGDEVSIHYDPMIAKVVVWGQDRAVAAAKLESALARTRISGLPTNIDFVRRVLAHPEFAAGNVYTDFIPDHQKELFAESETPAEIYVESAVAHALAALQKSDAGVFQNLSFFRMNLSPKYIFKIDGKDVSIRFDSDSRLTVSYDGNSYETLLNDIESTTDGSFKFTLEANGRRWSTVVKNLGNSLMVNGVGQNEYETPQIHETFDSLSGGAASHSAVAPMPGIIEKILVKPGEQVTTGQALVVMTAMKMEYIIRAPEDSTVEHIKCQAGKNVPKNAVLVQFA | not soluble
AHHHHHHASAKWVCKICGYIYDEDAGDPDNGISPGTKFEELPDDWVCPICGAPKSEFEKLEDGSACYSSSPEVIVLREYLLIKIHEDGVIKIPQELAYEVGLVKGAYFLVEIDTDIKELHVERVALPGKKLVEIELVVEDKPGVLAKIAGILGKNGINILFNEAEELESLGLSAIVAVVDVSGAKISLKDLESTLKEINEVKEVKIVEIE | soluble
METRRAERINKLIQALKRSDKIHLKDAANLLRVSEMTIRRDLSAEPTSVILLGGYVVMDPKSNNANNYFVSDQQAKQVEEKRRIGQLAAQLIIENDTVFFDCGTTIPWIIDEIDEELAFTAICYSLNTFLALQDKPNCKVILCGGEFKPNNCIFTPLSQQSELDNICPNKAFISAAGVSIEYGATCFNFDEILLKHRAMAKSQYKILVADHSKFGKIKPASIGTLAQFDALVTDRPPVAEFYLFFSQHSVKIYC | not soluble
AQCEATIESNDAMQYDLKEMVVDKSCKQFTVHLKHVGKMAKSAMGHNWVLTKEADKEGVATDGMNAGLAQDYVKAGDTRVIAHTKVIGGGESDSVTFDVSKLTPGEAYAYFCSFPGHWAMHKGTLKLSN | soluble
MEEAPFYRDTWVEVDLDAIYNNVTHIKEFIPSDVEIFAVVKGNAYGHDYVPVAKIALEAGATRLAVAFLDEALVLRRAGITAPILVLGPSPPRDINVAAENDVALTVFQKEWVDEAIKLWDGSSTMKYHINFDSGMGRIGIRERKELKGFLKSLEGAPFLELEGVYTHFATADEVETSYFDKQYNTFLEQLSWLKEFGVDPKFVHTANSAATLRFQGITFNAVRIGIAMYGLSPSVEIRPFLPFKLEPALSLHTKVAHIKQVIKGDGISYNVTYRTKTEEWIATVAIGYADGWLRRLQGFEVLVNGKRVPIVGRVTMDQFMIHLPCEVPLGTKVTLIGRQGDEYISATEVAEYSGTINYEIITTISFRVPRIFIRNGKVVEVINYLNDILEENLYFQ | soluble
MSLTDRIFINAVDAGGQPIHLVVRDGRFIAIGADCAAAPGAETIDLDGRVVLPGFVDGHIHLDKSFVGDRWVPHEPVGTLRERLAVEKRQLAAAPPIVERANALIAQAAAFGTVAMRSHVDVDATTGLSNLQAVMAAREQWRGIVDIELVAFPQAGVVTCPGTAEILDVAVREGADVVGGIDPTTLDGDADGQLDIVFGIAEKRGAKIDIHLHEPGETGIAQLLRIAARTRAAGLGGRVNVSHAYALGQVSDGDVQRTAAALAEAGVSILTNAPGDCAFPPVQALRDAGVHVFAGNDNIRDAWWPYGNGDMLQRAMMVGYRSGFYTDEALGIALDMATHAGARVIGKDNYGIAVGRDATFVAVRAPNAAAAVAGVPAERWVFRRGESDTGAPFAPALRFTREGHHHHHH | soluble
MPNNLELKQLIASAQVLGLQNDSSLPAFDRQILRMADEEKRALSPTEIQHICQTSKVDAQLIEQLQSQANHLVQQAREFLVKEQPHLVQSGGALFPSERAEACWRDCWQFFRVIVYAIACKRPLFTDAEGMGALRALYAHVGVPIEGLNIALKQLKVLSRQEISGAIEAPLLSESFGHLLEELNKTGVKS | not soluble
MGHHHHHHSHMCSWASYMTNSPTLIVMIGLPARGKTYVSKKLTRYLNWIGVPTKVFNLGVYRREAVKSYKSYDFFRHDNEEAMKIRKQCALVALEDVKAYLTEENGQIAVFDATNTTRERRDMILNFAEQNSFKVFFVESVCDDPDVIAANILEVKVSSPDYPERNRENVMEDFLKRIECYKVTYRPLDPDNYDKDLSFIKVINVGQRFLVNRVQDYIQSKIVYYLMNIHVQPRTIYLCRHGESEFN | soluble
MLLGEGAFGQVFKGILRGPNGQVIPVAVKQLKANAIDEEREEFVREIQMMQTVGQHDNIVTMYGYCMDEQLQCMIMEYVPYGDLKHYLQNMRKEKDSDSAIDSKEFLSFTNQIACGMAHLESVGIIHRDLAARNILVGTGKVLKISDFGMSRPGVYIKMSKGVIPLRWLSPEAIKDNTYSNKSDVWAFGVLLWEIATLGGFPYNNVADKDILNQLTEGMRLEQPAKCSDDMYILMKSCWNLKAEDRPSFLAILSKIEQIANVDADAPPSDPPAKDV | not soluble
MESSKKTSRSRSTTQEAVRDIKKYIRDNRLRTGDLLPSEAFLCEELGCSRSAIREAIRALVTLDIVEVRHGYGTFVSRMSLEPLINGMVFRTVLDNDTSVENLFYVVDTREILDLSLGEELIEVFTDDDRELLLDLVDKMREHNDQGESFVVEDQKFHRALLARTKNPLIRELNDAFWQIQTEAQPMLNLAMPADIDETIKAHSDIVEALSSGNIDDYRSAVLAHYAPFRRMISNMLDAH | not soluble
MKFDVIIIGGSYAGLSAALQLGRARKNILLVDAGERRNRFASHSHGFLGQDGKAPGEIIAEARRQIERYPTIHWVEGRVTDAKGSFGEFIVEIDGGRRETAGRLILAMGVTDELPEIAGLRERWGSAVFHCPYCHGYELDQGKIGVIAASPMAIHHALMLPDWGETTFFTNGIVEPDADQHALLAARGVRVETTRIREIAGHADVVLADGRSIALAGLFTQPKLRITVDWIEKLGCAVEEGPMGSTIVTDPMKQTTARGIFACGDVARPAGSVALAVGDGAMAGAAAHRSILFPEMR | soluble
MGERKGQNFYYPPDFNYKTHKSLNGYHGTHALRERAKKIDQGILVIRFEMPFNIWCLGCHNHVGMGVRYNAEKKKIGMYYTTPLHEFRMKCHLCDNYYVIRTDPKNFDYELVEGCSRQELRFDPTDIAQIGAVDRGFTQKLAADAMFKKEHEAEDKDKAATEEGRVDKLEWIQERMRDDFTANSFLRAQFRNEKKSLNETRARDANLRDKLSIGTTQLLPETEEDRRIASMMTRYRDTKTHDDHLESSRDRIESRRIFRRPEETDTPSTSSGSSGGAVPSASERLKATMKAERDKRINASFSTAGTSSATQKLLGIKRKSASSLGVQIKKAAPENSSLQDEEPAVEKPNISNPISLIAQEYGNSSDDSD | not soluble
MTCARCGYVREDLTLFDRVFVCPKCGWIVDRDYNASLNILRRSGSERPSVWSSAFYRWQGGAMKQEALSVRGGLEHHHHHH | not soluble
GSESGLRYAYTLVVDGTANTARCFGTGHVDGEAFVGYSNNKTHGIGRWVNASHVEEENKEFVRQCKELQAELDKMQNNSAVIGVKTVQLDVGCTSKIEKHYAYDGNETEDDTATSASERARDCQKKLTEYRKLVLASAVSPQLEVERRSSGREGGMRLRCFARDYYPADLEIRWWKDDGGGGALPQTSKQHHDPLPSGQGLYQKHIDVYVDGGLEHVYSCRVKGIATGLELQIVRWKG | soluble
MSLKMANPKYKRILIKLSGEALAGERGVGIDIQTVQTIAKEIQEVHSLGIEIALVIGGGNLWRGEPAAEAGMDRVQADYTGMLGTVMNALVMADSLQQVGVDTRVQTAIAMQQVAEPYVRGRALRHLEKGRIVIFGAGIGSPYFSTDTTAALRAAEIEADAILMAKNGVDGVYNADPKKDKTAVKFEELTHRDVINKGLRIMDSTASTLSMDNDIDLVVFNMNQSGNIKRVVFGENIGTTVSNNIEEKEEGHHHHHH | soluble
MSLENRGILFDKDGTCIRFDTLWQAGLQACFETLSMLAPHHSAEIKKILAIQEQRFLQKHLLDEVLYQELYQELAQFEELVEQGISSRWLEQFFYDYLRKNLKKIEPIGDLKQLFLELKRKNYKIGLATSDTLPATMLIMEYLGLTEMFDFIATGDRYLPKPDADMLQAFCQSCQLKATEVIMVGDSLVDVFMGTCHGKAGIGVLTGNCQSTDFEKFEVAYFRDIHEIPYQELWGNTKKKKIYYVEGHHHHHH | soluble
MGSDKIHHHHHHMDIEDLRTFVAVADAGGVSAAARRLGISKSIVSRRLFRIEAELGVQLLARTTRGAALTEAGITFRDHAARASAEIDTARETILPAGELHGRLRIAMPLTFGPTHFAPVLAEMARQHPQLHIHTSYSDRFVDLIAEGFDCAIRGAYLQDSNLIAKRVGPIHGKLVASPAYIKAHGSPEMVEQLVNHQALMQGTEAWQFMDGDRIVTVQPQGKFKADSATALAAAAAAGLGIAWLPDCITHAYLASGALVPIMTRYPVPPGAVYVVRPPSQHPARKVRVLTEMLTEYFKRTPELWGVDG | not soluble
